US20100130424A1 (Janssen / Centocor, published 2010)
No end group written: not given here. *: point of attachment. Succinimide(1-Et,3-yl) = CCN1C(=O)CC(*)C1=O

T1: human CRH receptor type 2 (human, UniProt Q13324 1-411)
T1 sequence (looked up): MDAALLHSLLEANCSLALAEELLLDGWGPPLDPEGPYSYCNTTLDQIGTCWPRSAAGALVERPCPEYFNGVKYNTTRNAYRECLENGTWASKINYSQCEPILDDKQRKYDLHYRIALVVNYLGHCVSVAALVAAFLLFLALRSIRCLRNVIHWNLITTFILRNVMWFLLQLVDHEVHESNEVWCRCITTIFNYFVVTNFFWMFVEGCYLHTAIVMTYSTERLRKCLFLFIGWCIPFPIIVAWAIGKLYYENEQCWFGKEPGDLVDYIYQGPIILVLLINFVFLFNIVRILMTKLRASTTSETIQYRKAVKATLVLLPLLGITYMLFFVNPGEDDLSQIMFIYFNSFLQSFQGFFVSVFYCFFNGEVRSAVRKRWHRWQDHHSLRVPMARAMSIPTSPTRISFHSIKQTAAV

B1: Cys-variant of stresscopin peptide with N-Ethylsuccinimide (NES) reactive group, SEQ ID NO: 51 (peptide)
peptide: TKFTLSLDVPTNIMNLLFNC(Succinimide(1-Et,3-yl))AKAKNLRAQAAANAHLMAQI-NH2
modifications: N-terminus assumed
SMILES: CC[C@H](C)[C@H](NC(=O)[C@H](CCC(N)=O)NC(=O)[C@H](C)NC(=O)[C@H](CCSC)NC(=O)[C@H](CC(C)C)NC(=O)[C@H](Cc1c[nH]cn1)NC(=O)[C@H](C)NC(=O)[C@H](CC(N)=O)NC(=O)[C@H](C)NC(=O)[C@H](C)NC(=O)[C@H](C)NC(=O)[C@H](CCC(N)=O)NC(=O)[C@H](C)NC(=O)[C@H](CCCNC(=N)N)NC(=O)[C@H](CC(C)C)NC(=O)[C@H](CC(N)=O)NC(=O)[C@H](CCCCN)NC(=O)[C@H](C)NC(=O)[C@H](CCCCN)NC(=O)[C@H](C)NC(=O)[C@H](CSC1CC(=O)N(CC)C1=O)NC(=O)[C@H](CC(N)=O)NC(=O)[C@H](Cc1ccccc1)NC(=O)[C@H](CC(C)C)NC(=O)[C@H](CC(C)C)NC(=O)[C@H](CC(N)=O)NC(=O)[C@H](CCSC)NC(=O)[C@@H](NC(=O)[C@H](CC(N)=O)NC(=O)[C@@H](NC(=O)[C@@H]1CCCN1C(=O)[C@@H](NC(=O)[C@H](CC(=O)O)NC(=O)[C@H](CC(C)C)NC(=O)[C@H](CO)NC(=O)[C@H](CC(C)C)NC(=O)[C@@H](NC(=O)[C@H](Cc1ccccc1)NC(=O)[C@H](CCCCN)NC(=O)[C@@H](N)[C@@H](C)O)[C@@H](C)O)C(C)C)[C@@H](C)O)[C@@H](C)CC)C(N)=O
B2: Cys-variant of stresscopin peptide with N-Ethylsuccinimide (NES) reactive group, SEQ ID NO: 54 (peptide)
peptide: TKFTLSLDVPTNIMNC(Succinimide(1-Et,3-yl))LFNIAKAKNLRAQAAANAHLMAQI-NH2
modifications: N-terminus assumed
SMILES: CC[C@H](C)[C@H](NC(=O)[C@H](CCC(N)=O)NC(=O)[C@H](C)NC(=O)[C@H](CCSC)NC(=O)[C@H](CC(C)C)NC(=O)[C@H](Cc1c[nH]cn1)NC(=O)[C@H](C)NC(=O)[C@H](CC(N)=O)NC(=O)[C@H](C)NC(=O)[C@H](C)NC(=O)[C@H](C)NC(=O)[C@H](CCC(N)=O)NC(=O)[C@H](C)NC(=O)[C@H](CCCNC(=N)N)NC(=O)[C@H](CC(C)C)NC(=O)[C@H](CC(N)=O)NC(=O)[C@H](CCCCN)NC(=O)[C@H](C)NC(=O)[C@H](CCCCN)NC(=O)[C@H](C)NC(=O)[C@@H](NC(=O)[C@H](CC(N)=O)NC(=O)[C@H](Cc1ccccc1)NC(=O)[C@H](CC(C)C)NC(=O)[C@H](CSC1CC(=O)N(CC)C1=O)NC(=O)[C@H](CC(N)=O)NC(=O)[C@H](CCSC)NC(=O)[C@@H](NC(=O)[C@H](CC(N)=O)NC(=O)[C@@H](NC(=O)[C@@H]1CCCN1C(=O)[C@@H](NC(=O)[C@H](CC(=O)O)NC(=O)[C@H](CC(C)C)NC(=O)[C@H](CO)NC(=O)[C@H](CC(C)C)NC(=O)[C@@H](NC(=O)[C@H](Cc1ccccc1)NC(=O)[C@H](CCCCN)NC(=O)[C@@H](N)[C@@H](C)O)[C@@H](C)O)C(C)C)[C@@H](C)O)[C@@H](C)CC)[C@@H](C)CC)C(N)=O
B3: Cys-variant of stresscopin peptide with N-Ethylsuccinimide (NES) reactive group, SEQ ID NO: 52 (peptide)
peptide: TKFTLSLDVPTNIMNLLFC(Succinimide(1-Et,3-yl))IAKAKNLRAQAAANAHLMAQI-NH2
modifications: N-terminus assumed
SMILES: CC[C@H](C)[C@H](NC(=O)[C@H](CCC(N)=O)NC(=O)[C@H](C)NC(=O)[C@H](CCSC)NC(=O)[C@H](CC(C)C)NC(=O)[C@H](Cc1c[nH]cn1)NC(=O)[C@H](C)NC(=O)[C@H](CC(N)=O)NC(=O)[C@H](C)NC(=O)[C@H](C)NC(=O)[C@H](C)NC(=O)[C@H](CCC(N)=O)NC(=O)[C@H](C)NC(=O)[C@H](CCCNC(=N)N)NC(=O)[C@H](CC(C)C)NC(=O)[C@H](CC(N)=O)NC(=O)[C@H](CCCCN)NC(=O)[C@H](C)NC(=O)[C@H](CCCCN)NC(=O)[C@H](C)NC(=O)[C@@H](NC(=O)[C@H](CSC1CC(=O)N(CC)C1=O)NC(=O)[C@H](Cc1ccccc1)NC(=O)[C@H](CC(C)C)NC(=O)[C@H](CC(C)C)NC(=O)[C@H](CC(N)=O)NC(=O)[C@H](CCSC)NC(=O)[C@@H](NC(=O)[C@H](CC(N)=O)NC(=O)[C@@H](NC(=O)[C@@H]1CCCN1C(=O)[C@@H](NC(=O)[C@H](CC(=O)O)NC(=O)[C@H](CC(C)C)NC(=O)[C@H](CO)NC(=O)[C@H](CC(C)C)NC(=O)[C@@H](NC(=O)[C@H](Cc1ccccc1)NC(=O)[C@H](CCCCN)NC(=O)[C@@H](N)[C@@H](C)O)[C@@H](C)O)C(C)C)[C@@H](C)O)[C@@H](C)CC)[C@@H](C)CC)C(N)=O
B4: Cys-variant of stresscopin peptide with N-Ethylsuccinimide (NES) reactive group, SEQ ID NO: 53 (peptide)
peptide: TKFTLSLDVPTNIMNLC(Succinimide(1-Et,3-yl))FNIAKAKNLRAQAAANAHLMAQI-NH2
modifications: N-terminus assumed
SMILES: CC[C@H](C)[C@H](NC(=O)[C@H](CCC(N)=O)NC(=O)[C@H](C)NC(=O)[C@H](CCSC)NC(=O)[C@H](CC(C)C)NC(=O)[C@H](Cc1c[nH]cn1)NC(=O)[C@H](C)NC(=O)[C@H](CC(N)=O)NC(=O)[C@H](C)NC(=O)[C@H](C)NC(=O)[C@H](C)NC(=O)[C@H](CCC(N)=O)NC(=O)[C@H](C)NC(=O)[C@H](CCCNC(=N)N)NC(=O)[C@H](CC(C)C)NC(=O)[C@H](CC(N)=O)NC(=O)[C@H](CCCCN)NC(=O)[C@H](C)NC(=O)[C@H](CCCCN)NC(=O)[C@H](C)NC(=O)[C@@H](NC(=O)[C@H](CC(N)=O)NC(=O)[C@H](Cc1ccccc1)NC(=O)[C@H](CSC1CC(=O)N(CC)C1=O)NC(=O)[C@H](CC(C)C)NC(=O)[C@H](CC(N)=O)NC(=O)[C@H](CCSC)NC(=O)[C@@H](NC(=O)[C@H](CC(N)=O)NC(=O)[C@@H](NC(=O)[C@@H]1CCCN1C(=O)[C@@H](NC(=O)[C@H](CC(=O)O)NC(=O)[C@H](CC(C)C)NC(=O)[C@H](CO)NC(=O)[C@H](CC(C)C)NC(=O)[C@@H](NC(=O)[C@H](Cc1ccccc1)NC(=O)[C@H](CCCCN)NC(=O)[C@@H](N)[C@@H](C)O)[C@@H](C)O)C(C)C)[C@@H](C)O)[C@@H](C)CC)[C@@H](C)CC)C(N)=O
B5: Cys-variant of stresscopin peptide with N-Ethylsuccinimide (NES) reactive group, SEQ ID NO: 49 (peptide)
peptide: TKFTLSLDVPTNIMNLLFNIAKAKC(Succinimide(1-Et,3-yl))LRAQAAANAHLMAQI-NH2
modifications: N-terminus assumed
SMILES: CC[C@H](C)[C@H](NC(=O)[C@H](CCC(N)=O)NC(=O)[C@H](C)NC(=O)[C@H](CCSC)NC(=O)[C@H](CC(C)C)NC(=O)[C@H](Cc1c[nH]cn1)NC(=O)[C@H](C)NC(=O)[C@H](CC(N)=O)NC(=O)[C@H](C)NC(=O)[C@H](C)NC(=O)[C@H](C)NC(=O)[C@H](CCC(N)=O)NC(=O)[C@H](C)NC(=O)[C@H](CCCNC(=N)N)NC(=O)[C@H](CC(C)C)NC(=O)[C@H](CSC1CC(=O)N(CC)C1=O)NC(=O)[C@H](CCCCN)NC(=O)[C@H](C)NC(=O)[C@H](CCCCN)NC(=O)[C@H](C)NC(=O)[C@@H](NC(=O)[C@H](CC(N)=O)NC(=O)[C@H](Cc1ccccc1)NC(=O)[C@H](CC(C)C)NC(=O)[C@H](CC(C)C)NC(=O)[C@H](CC(N)=O)NC(=O)[C@H](CCSC)NC(=O)[C@@H](NC(=O)[C@H](CC(N)=O)NC(=O)[C@@H](NC(=O)[C@@H]1CCCN1C(=O)[C@@H](NC(=O)[C@H](CC(=O)O)NC(=O)[C@H](CC(C)C)NC(=O)[C@H](CO)NC(=O)[C@H](CC(C)C)NC(=O)[C@@H](NC(=O)[C@H](Cc1ccccc1)NC(=O)[C@H](CCCCN)NC(=O)[C@@H](N)[C@@H](C)O)[C@@H](C)O)C(C)C)[C@@H](C)O)[C@@H](C)CC)[C@@H](C)CC)C(N)=O
B6: Cys-variant of stresscopin peptide with N-Ethylsuccinimide (NES) reactive group, SEQ ID NO: 50 (peptide)
peptide: TKFTLSLDVPTNIMNLLFNIAKAC(Succinimide(1-Et,3-yl))NLRAQAAANAHLMAQI-NH2
modifications: N-terminus assumed
SMILES: CC[C@H](C)[C@H](NC(=O)[C@H](CCC(N)=O)NC(=O)[C@H](C)NC(=O)[C@H](CCSC)NC(=O)[C@H](CC(C)C)NC(=O)[C@H](Cc1c[nH]cn1)NC(=O)[C@H](C)NC(=O)[C@H](CC(N)=O)NC(=O)[C@H](C)NC(=O)[C@H](C)NC(=O)[C@H](C)NC(=O)[C@H](CCC(N)=O)NC(=O)[C@H](C)NC(=O)[C@H](CCCNC(=N)N)NC(=O)[C@H](CC(C)C)NC(=O)[C@H](CC(N)=O)NC(=O)[C@H](CSC1CC(=O)N(CC)C1=O)NC(=O)[C@H](C)NC(=O)[C@H](CCCCN)NC(=O)[C@H](C)NC(=O)[C@@H](NC(=O)[C@H](CC(N)=O)NC(=O)[C@H](Cc1ccccc1)NC(=O)[C@H](CC(C)C)NC(=O)[C@H](CC(C)C)NC(=O)[C@H](CC(N)=O)NC(=O)[C@H](CCSC)NC(=O)[C@@H](NC(=O)[C@H](CC(N)=O)NC(=O)[C@@H](NC(=O)[C@@H]1CCCN1C(=O)[C@@H](NC(=O)[C@H](CC(=O)O)NC(=O)[C@H](CC(C)C)NC(=O)[C@H](CO)NC(=O)[C@H](CC(C)C)NC(=O)[C@@H](NC(=O)[C@H](Cc1ccccc1)NC(=O)[C@H](CCCCN)NC(=O)[C@@H](N)[C@@H](C)O)[C@@H](C)O)C(C)C)[C@@H](C)O)[C@@H](C)CC)[C@@H](C)CC)C(N)=O

Biological target: T1, human CRH receptor type 2
Assay: cell-based or functional assay

| Binder | Log DR against h-SCP, cAMP [log10 ratio] | pA50, cAMP |
| --- | --- | --- |
| B1 | 0.68 | 8.79 -log M |
| B2 | -0.08 | 9.55 -log M |
| B3 | 0.05 | 9.42 -log M |
| TCFTLSLDVPTNIMNLLFNIAKAKNLRAQAAANAHLMAQI-NH2 [Cys-variant CRHR2 peptide agonist, SEQ ID NO: 3] | 0.72 | 8.97 -log M |
| B4 | ~2.22 | ~7.25 -log M |
| CKFTLSLDVPTNIMNLLFNIAKAKNLRAQAAANAHLMAQI-NH2 [Cys-variant CRHR2 peptide agonist, SEQ ID NO: 2] | 0.72 | 8.97 -log M |
| B5 | 0.11 | 9.36 -log M |
| B6 | -0.01 | 9.48 -log M |
| CKFTLSLDVPTNIMNLLFNIAKAKNLRAQAAANAHLMAQI (NES-PEG (about 20 kDa) on Cys 1; C-terminal amide) [Pegylated Cys-variant CRHR2 peptide agonist (NES linker, PEG about 20 kDa), SEQ ID NO: 55] | ~1.61 | ~7.93 -log M |
